For test [1], the system named is CD34+ cells from newly diagnosed CML patients. Put plainly: Proliferation of lentivirus-infected CD34+ cells from newly diagnosed CML patients. The note with it: for cell growth, in words: lentiviral CCmut3 compared with EV cells treated with 2.5 μM imatinib. In kind it is cell-based, human. The protocol:
(§1) Mononuclear cells (MNCs) were separated from the peripheral blood of patients with newly diagnosed or therapy-resistant CML with a documented T315I mutation, using Ficoll (Nycomed, Oslo, Norway). Isolation of the CD34^+ fraction was done on an autoMACS Pro (Miltenyi Biotech). CD34^+ progenitors were maintained at 1×10^6 cells/mL in RPMI1640 containing 20% FBS and 5 μL/mL StemSpan CC100 (Stem Cell Technologies, Vancouver, BC, Canada). Cells were infected with lentivirus at a multiplicity of infection (MOI) of 5 for each construct at 24 and 48 hours following harvest (fresh cells) or thaw (frozen cells). Cells were sorted on a BD FACSAria cytometer after 72 h, and GFP-positive cells were returned to culture medium for future experiments. All patients gave their informed consent in accordance with the Declaration of Helsinki, and all studies with human specimens were approved by The University of Utah Institutional Review Board (IRB).
Cell proliferation was assessed using the CellTiter 96® AQueous One Solution Cell Proliferation Assay (MTS assay, Promega) according to manufacturer instructions. […] In some experiments, cell proliferation was assessed using a Neubauer chamber and trypan blue dye exclusion.
Mononuclear cells (MNCs) from peripheral blood of patients with newly diagnosed or TKI-resistant CML were separated by Ficoll (Nycomed, Oslo, Norway), and the CD34+ fraction was isolated using an autoMACS Pro Separator (Miltenyi Biotech, San Diego, Calif., USA). Purity was determined to be >90% by flow cytometric analysis using a Guava 6HT flow cytometer (Millipore, Billerica, Mass., USA). […]
293FT cells (Life Technologies, Grand Island, N.Y., USA) were grown in DMEM with 10% FBS, 100 U/ml penicillin-streptomycin, 2 mM L-glutamine, 0.1 mM MEM-non-essential amino acids, and 1 mM sodium pyruvate (Life Technologies, Grand Island, N.Y., USA). […] Lentiviral titers were determined. […]
Cell proliferation was assessed using a […] viability assay (MTS assay) utilizing CellTiter 96® AQueous One Solution Cell Proliferation Assay (Promega) according to manufacturer instructions. […]

Test [2] concerns CML CD34+ cells expressing BCR-ABL1T315I. In words: Colony forming assay of primary CML CD34+ cells expressing BCR-ABL1T315I (samples R1, R2). In kind it is cell-based, human. Here is the method:
as §1, with “CD34^+ progenitors were maintained at 1×10^6 cells/mL in RPMI1640 containing 20% FBS and 5 μL/mL StemSpan CC100 (Stem Cell Technologies, Vancouver, BC, Canada).” left out
Briefly, lentivirus-infected (GFP^+) cells were isolated by FACS and resuspended in RPMI1640. […] Plates were incubated at 37° C. in a 5% CO2 humidified incubator for 14 days. Colony forming units of granulocyte-macrophage (CFU-GM) were counted on day 14 using an inverted microscope.
All cells were plated with or without the indicated TKI in three or more independent experiments. Plates were incubated at 37° C. in a 5% CO2 humidified incubator. Colonies were counted 7-14 days later in an area of 50 μm2 per dish using an inverted microscope.

The next test has as its system Ba/F3-p210-T315I cells. In words: Trypan blue proliferation assay of transfected Ba/F3-p210-T315I cells. Type of test: cell-based, mouse. The note with it: CC^mut3 alone, trypan blue exclusion, 72 and 96 h. Here is the method:
Cell counts were performed using a standard light microscope.

Where [3] appears, read: sample R1 (accelerated phase), lentiviral CCmut3 or 10 nM ponatinib vs EV.

B1: CCmut3: modified Bcr-Abl coiled-coil domain (residues 1-72) with mutations C38A, K39E, S41R, L45D, E48R, Q60E (protein)
chain: MVDPVGFAEAWKAQFPDSEPPRMELRSVGDIEQELERAEARIRRDEQRVNQERFRMIYLETLLAKEKKSYDR
B1: the “cell growth, in words” value in test [1] is “significant reduction compared to inhibition by imatinib”; in test [1] (listed as CC^mut3) it was “considerably more pronounced reduction of growth than observed with IM”. For the same molecule, the “reduction of cell proliferation/growth” value in test [1] (lentiviral CCmut3 vs EV, trypan blue exclusion) is “more than 2 fold”. For the same molecule, the “colony formation, in words” value was “even greater sensitivity to transduction with CCmut3” in test [2] (setting [3]); “reduced colony formation to a similar degree” in test [2] (sample R1 (accelerated phase), lentiviral CCmut3 or 10 nM ponatinib vs EV, listed as CC^mut3); “only minimal activity” in test [2] (sample R2 (blast crisis, after ponatinib failure), lentiviral CCmut3 or ponatinib vs EV); “insensitive” in test [2] (sample R2 (blast crisis, after ponatinib failure), lentiviral CCmut3 or ponatinib vs EV, listed as CC^mut3). The “reduction of colony formation” value was 76% in test [2] (setting [3]) and roughly 25% in test [2] (sample R2 (blast crisis, after ponatinib failure), lentiviral CCmut3 vs EV). Besides, the cell proliferation entry in the test on Ba/F3-p210-T315I cells is “inhibit Ba/F3-p210-T315I cell proliferation”.

The values above are taken from US10494417B2, “Peptide inhibitors of BCR-ABL oligomerization” (University of Utah Research Foundation, priority 2014, dated 2019).
